Assay results as given in the supplement of paper PMC10567573.

B1: COX4I1 (parent)
chain: VAHVKHLSASQKALKEKEKASWSS

Variants of: B1
Assay: protein stability index of a GFP-peptide fusion (GPS, HEK-293T) (PSI 1-6); higher = more stable
Conditions: c terminus: a fixed tail appended
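Further: lentivirally expressed fusions sorted by FACS into six bins by GFP to DsRed ratio, PSI derived from sequencing read proportions per bin multiplied by bin number.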

Going from VAHVKWLSASQKALKEKEKASWSS [H6W] to VAHVKILSASQKALKEKEKASWSS [H6I], the protein stability index rises from 2.32 to 3.24.

First: VAHVKNLSASQKALKEKEKASWSS [H6N]
Second: VAHVKLLSASQKALKEKEKASWSS [H6L]
The protein stability index of the first is higher: 3.38 for the first, 3.3 for the second.

First: VAHVKELSASQKALKEKEKASWSS [H6E]
Second: VAHVKKLSASQKALKEKEKASWSS [H6K]
The protein stability index of the first is higher: 3.87 for the first, 3.51 for the second.

Compared with VAHVKMLSASQKALKEKEKASWSS [H6M], VAHVKCLSASQKALKEKEKASWSS [H6C] is higher in protein stability index: 3.12 for the first, 3.21 for the second.

Compared with VAHVKVLSASQKALKEKEKASWSS [H6V], VAHVKSLSASQKALKEKEKASWSS [H6S] is higher in protein stability index: 2.96 for the first, 3.38 for the second.

Compared with VAHVKDLSASQKALKEKEKASWSS [H6D], VAHVKRLSASQKALKEKEKASWSS [H6R] is lower in protein stability index: 3.81 for the first, 3.41 for the second.

First: VAHVKALSASQKALKEKEKASWSS [H6A]
Second: VAHVKFLSASQKALKEKEKASWSS [H6F]
The protein stability index of the first is higher: 3.24 for the first, 2.78 for the second.

Going from VAHVKPLSASQKALKEKEKASWSS [H6P] to VAHVKYLSASQKALKEKEKASWSS [H6Y], the protein stability index falls from 3.98 to 2.5.

First: VAHVKGLSASQKALKEKEKASWSS [H6G]
Second: VAHVKQLSASQKALKEKEKASWSS [H6Q]
The protein stability index of the first is lower: 3.45 for the first, 4.45 for the second.

Compared with VAHVKHLIASQKALKEKEKASWSS [S8I], VAHVKHLHASQKALKEKEKASWSS [S8H] is higher in protein stability index: 3.1 for the first, 3.22 for the second.

Going from VAHVKHLYASQKALKEKEKASWSS [S8Y] to VAHVKHLWASQKALKEKEKASWSS [S8W], the protein stability index falls from 2.55 to 2.35.

Compared with VAHVKHLLASQKALKEKEKASWSS [S8L], VAHVKHLRASQKALKEKEKASWSS [S8R] is higher in protein stability index: 3.02 for the first, 3.11 for the second.

Compared with VAHVKHLMASQKALKEKEKASWSS [S8M], VAHVKHLEASQKALKEKEKASWSS [S8E] is higher in protein stability index: 2.92 for the first, 3.6 for the second.

Compared with VAHVKHLDASQKALKEKEKASWSS [S8D], VAHVKHLQASQKALKEKEKASWSS [S8Q] is lower in protein stability index: 3.86 for the first, 3.24 for the second.

First: VAHVKHLNASQKALKEKEKASWSS [S8N]
Second: VAHVKHLGASQKALKEKEKASWSS [S8G]
The protein stability index of the first is lower: 3.53 for the first, 3.64 for the second.

First: VAHVKHLAASQKALKEKEKASWSS [S8A]
Second: VAHVKHLKASQKALKEKEKASWSS [S8K]
The protein stability index of the first is higher: 3.57 for the first, 3.46 for the second.

First: VAHVKHLCASQKALKEKEKASWSS [S8C]
Second: VAHVKHLTASQKALKEKEKASWSS [S8T]
The protein stability index of the first is lower: 2.41 for the first, 3.1 for the second.

First: VAHVKHLPASQKALKEKEKASWSS [S8P]
Second: VAHVKHLVASQKALKEKEKASWSS [S8V]
The protein stability index of the first is higher: 3.62 for the first, 2.7 for the second.

Compared with VAHVKHLFASQKALKEKEKASWSS [S8F], VAHVKHLSASQVALKEKEKASWSS [K12V] is higher in protein stability index: 2.2 for the first, 3.77 for the second.

Compared with VAHVKHLSASQSALKEKEKASWSS [K12S], VAHVKHLSASQPALKEKEKASWSS [K12P] is lower in protein stability index: 3.64 for the first, 3.58 for the second.

Compared with VAHVKHLSASQFALKEKEKASWSS [K12F], VAHVKHLSASQYALKEKEKASWSS [K12Y] is higher in protein stability index: 2.92 for the first, 2.98 for the second.

Compared with VAHVKHLSASQCALKEKEKASWSS [K12C], VAHVKHLSASQEALKEKEKASWSS [K12E] is higher in protein stability index: 2.33 for the first, 3.52 for the second.

Compared with VAHVKHLSASQMALKEKEKASWSS [K12M], VAHVKHLSASQQALKEKEKASWSS [K12Q] is higher in protein stability index: 2.77 for the first, 3.86 for the second.

Going from VAHVKHLSASQTALKEKEKASWSS [K12T] to VAHVKHLSASQWALKEKEKASWSS [K12W], the protein stability index falls from 3.32 to 2.69.

Compared with VAHVKHLSASQIALKEKEKASWSS [K12I], VAHVKHLSASQLALKEKEKASWSS [K12L] is higher in protein stability index: 2.71 for the first, 3.32 for the second.

Compared with VAHVKHLSASQHALKEKEKASWSS [K12H], VAHVKHLSASQGALKEKEKASWSS [K12G] is lower in protein stability index: 2.84 for the first, 2.65 for the second.

Compared with VAHVKHLSASQAALKEKEKASWSS [K12A], VAHVKHLSASQDALKEKEKASWSS [K12D] is higher in protein stability index: 2.61 for the first, 3.88 for the second.

Compared with VAHVKHLSASQNALKEKEKASWSS [K12N], VAHVKHLSASQRALKEKEKASWSS [K12R] is lower in protein stability index: 3.13 for the first, 3.07 for the second.

First: VAHVKHLSASEKALKEKEKASWSS [Q11E]
Second: VAHVKHLSASCKALKEKEKASWSS [Q11C]
The protein stability index of the first is higher: 3.65 for the first, 3.21 for the second.

Going from VAHVKHLSASIKALKEKEKASWSS [Q11I] to VAHVKHLSASTKALKEKEKASWSS [Q11T], the protein stability index falls from 2.94 to 2.86.

First: VAHVKHLSASWKALKEKEKASWSS [Q11W]
Second: VAHVKHLSASLKALKEKEKASWSS [Q11L]
The protein stability index of the first is lower: 2.92 for the first, 2.96 for the second.

Going from VAHVKHLSASAKALKEKEKASWSS [Q11A] to VAHVKHLSASDKALKEKEKASWSS [Q11D], the protein stability index falls from 3.28 to 3.21.

First: VAHVKHLSASFKALKEKEKASWSS [Q11F]
Second: VAHVKHLSASVKALKEKEKASWSS [Q11V]
The protein stability index of the first is lower: 2.56 for the first, 2.65 for the second.

Going from VAHVKHLSASSKALKEKEKASWSS [Q11S] to VAHVKHLSASMKALKEKEKASWSS [Q11M], the protein stability index falls from 3.35 to 3.25.

Going from VAHVKHLSASYKALKEKEKASWSS [Q11Y] to VAHVKHLSASPKALKEKEKASWSS [Q11P], the protein stability index rises from 2.08 to 3.6.

First: VAHVKHLSASHKALKEKEKASWSS [Q11H]
Second: VAHVKHLSASGKALKEKEKASWSS [Q11G]
The protein stability index of the first is higher: 3.26 for the first, 2.67 for the second.

Compared with VAHVKHLSASNKALKEKEKASWSS [Q11N], VAHVKHLSASRKALKEKEKASWSS [Q11R] is lower in protein stability index: 3.4 for the first, 2.83 for the second.

First: VAHVKHLSASKKALKEKEKASWSS [Q11K]
Second: VAHVKHKSASQKALKEKEKASWSS [L7K]
The protein stability index of the first is lower: 2.99 for the first, 3.43 for the second.

First: VAHVKHNSASQKALKEKEKASWSS [L7N]
Second: VAHVKHFSASQKALKEKEKASWSS [L7F]
The protein stability index of the first is higher: 3.85 for the first, 3.42 for the second.

First: VAHVKHGSASQKALKEKEKASWSS [L7G]
Second: VAHVKHISASQKALKEKEKASWSS [L7I]
The protein stability index of the first is higher: 3.99 for the first, 3.79 for the second.

First: VAHVKHVSASQKALKEKEKASWSS [L7V]
Second: VAHVKHHSASQKALKEKEKASWSS [L7H]
The protein stability index of the first is lower: 3.68 for the first, 3.72 for the second.

First: VAHVKHASASQKALKEKEKASWSS [L7A]
Second: VAHVKHSSASQKALKEKEKASWSS [L7S]
The protein stability index of the first is lower: 2.27 for the first, 3.6 for the second.

Compared with VAHVKHYSASQKALKEKEKASWSS [L7Y], VAHVKHCSASQKALKEKEKASWSS [L7C] is higher in protein stability index: 3.36 for the first, 3.47 for the second.

Going from VAHVKHWSASQKALKEKEKASWSS [L7W] to VAHVKHPSASQKALKEKEKASWSS [L7P], the protein stability index rises from 2.84 to 3.91.

Going from VAHVKHDSASQKALKEKEKASWSS [L7D] to VAHVKHMSASQKALKEKEKASWSS [L7M], the protein stability index falls from 4.03 to 3.4.

Compared with VAHVKHTSASQKALKEKEKASWSS [L7T], VAHVKHQSASQKALKEKEKASWSS [L7Q] is lower in protein stability index: 3.54 for the first, 3.36 for the second.

First: VAHVKHESASQKALKEKEKASWSS [L7E]
Second: VAHVKHRSASQKALKEKEKASWSS [L7R]
The protein stability index of the first is higher: 4.3 for the first, 2.99 for the second.
